# Article PMC8599909
# T1: PUS7(Δ1-98) (Homo sapiens, UniProt Q96PZ0 99-661, del1-98)
# T1 sequence: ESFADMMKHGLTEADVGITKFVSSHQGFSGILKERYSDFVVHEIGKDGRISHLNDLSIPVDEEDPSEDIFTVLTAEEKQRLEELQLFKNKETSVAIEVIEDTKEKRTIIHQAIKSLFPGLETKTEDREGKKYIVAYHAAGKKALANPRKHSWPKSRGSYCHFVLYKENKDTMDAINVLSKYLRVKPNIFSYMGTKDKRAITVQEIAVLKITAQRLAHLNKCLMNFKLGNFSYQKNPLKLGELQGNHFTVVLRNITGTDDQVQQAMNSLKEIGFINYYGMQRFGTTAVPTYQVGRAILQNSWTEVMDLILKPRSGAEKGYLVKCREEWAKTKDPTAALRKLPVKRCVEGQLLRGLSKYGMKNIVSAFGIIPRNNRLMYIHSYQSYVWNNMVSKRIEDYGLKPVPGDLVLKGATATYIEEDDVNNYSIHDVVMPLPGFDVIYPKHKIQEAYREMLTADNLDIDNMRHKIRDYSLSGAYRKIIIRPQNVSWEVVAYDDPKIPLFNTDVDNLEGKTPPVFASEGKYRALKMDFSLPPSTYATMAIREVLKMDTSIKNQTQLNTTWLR
# B1: 18mer-cy-tRNAGln (ssRNA)
# RNA: GGGGCCCCAUGGUGUAAUGG
# Biological target: T1, PUS7(Δ1-98)
# Experiment: filter binding
binder,measurement,value
B1,Kd,267 ± 91 nM
